In article PMC6953809:

Columns and labels:
[1] = target: EGFP-rGR as used in the number and brightness assay (Fig 7) and in the ccN&B with alternative ligands (Fig 9) (rat) (UniProt P06536); assay: number and brightness assay (N&B); living 3617 cells, transiently transfected, nucleoplasm, 100 nM corticosterone; average molecular brightness (ε) in one channel with different co-expressed partners
[2] = target: EGFP-rGR as used in the number and brightness assay (Fig 7) and in the ccN&B with alternative ligands (Fig 9) (rat) (UniProt P06536); assay: cross-correlation number and brightness assay (ccN&B); living 3617 cells +tetracycline, transiently transfected, nuclear Bcc relative to 100 nM corticosterone (100%); 100 nM of alternative ligands (cortisol, prednisolone, dexamethasone, aldosterone) or dexamethasone 10 nM + aldosterone 10 nM, aldosterone 10 nM + RU486 1 μM, corticosterone 10 nM + RU486 1 μM

Row | average molecular brightness (ε) of EGFP-rGR paired with mCherry-rGR, percent of the +mCherry reference [1] | stoichiometry N [1] | Bcc value with 100 nM cortisol, percent of the Bcc value with corticosterone [2] | Bcc value with 100 nM prednisolone, percent of the Bcc value with corticosterone [2] | Substance
1 | 63.3% | 2 |  |  | EGFP-rGR as used in the number and brightness assay (Fig 7) and in the ccN&B with alternative ligands (Fig 9) (from UniProt P06536 1-795) (receptor)
2 |  |  | 70% | 60% | mCherry-tagged rat mineralocorticoid receptor, transiently expressed in 3617 cells (from UniProt P22199 1-981)
